The DeepSol protein solubility set

Test: soluble on expression in E. coli; label from the status in PepcDB or PDB records

Soluble on expression in E. coli, soluble:
MKKVNLAVVGATGMVGRTFIKVLEERNLPIDNIYFFSSSRSAGSTVTFNNKEYVVEELTETSFDRGIDIALFSAGASVSEKFAPIAASKGCVVVDNSSCWRMNEKVPLVVPEVNPQDISCHQGIIANPNCSTIQAVVVLKPLHDKYKIKRIVYSTYQAVSGAGHNGYMDLENGLKGEPPKKFPHPIAGNCLPHIDSFLPNGYTKEEMKMVNETRKILGDYSIRITATTVRVPVFNGHSESINVEFEKQFDLEELKEVLRNAPGVVVQDDVANNVYPMPIYASGRDETFVGRIRRDESVESGVNLWVVADNIRKGAATNAVQIAEELIKMWNK
MWPLALVIASLTLALSGGVSQESSKVLNTNGTSGFLPGGYTCFPHSQPWQAALLVQGRLLCGGVLVHPKWVLTAAHCLKEGLKVYLGKHALGRVEAGEQVREVVHSIPHPEYRRSPTHLNHDHDIMLLELQSPVQLTGYIQTLPLSHNNRLTPGTTCRVSGWGTTTSPQVNYPKTLQCANIQLRSDEECRQVYPGKITDNMLCAGTKEGGKDSCEGDSGGPLVCNRTLYGIVSWGDFPCGQPDRPGVYTRVSRYVLWIRETIRKYETQQQKWLKGPQ
MFPYYQRQCPTGSVPYTIKAGDTLAAIARIYGTTVQDIINANPDIDPYYLRVGQQICIPLTMQIYPSCPTTNYYVVRPEDTLESIAAYFNITPQQLLYSNYGIDPTDLYVDQILCIPVAPPPVTVNVNVAERTLTVYRDGRIYRTYRIALENPASPIPRGTFTVLNKQVDPGVEMGARWIGLSEAGFGIHGTNTPEFIDVVSTGNSIVMSNEDVSELFNLVPVGTIVTIS

Soluble on expression in E. coli, not soluble:
MEQLKCHVKQYAWGKYGEESEVARLFADGHESFQIDQKTPYAELWMGTHPDGPAQLKKCSTKLSTYLAKNPSPLTNNNSAKNIHLPFIMKVMSIRTTLSLQVHPTKEQARRLHEKDPIHYPDRNHKPELAYALTRFELLCGFRPAREILQNLQTFPSFRLLFGGDTYAKPLEDCIQQMKDLNSVDQKSTEFKDSRKYLEDCFRFMMVPERNDVHDLIAKLLSELDNGLRGAVEEVTVGVIRKMSVDFPNDIGIFSPLFLNHMILEPGQCCYYAAEELHAYLSGECVECVGCSNNTIRAAMTPKYIDRDALCSVLNYKMTEQKDYLVPENKLTECVDMYAPDCKDFQLHRIRVGTHQTVEEMMIPTLDCASIFVVVSGKGTLEEATIDNQLIGQYEVKRGDIFYIPPKHNIRFSSCSEPLEGYRTFSYEMGPDHDTRLVTPVQNAVPTITEKMFKLDADMEEAITAVV
MGSDKIHHHHHHMMYQTYDLYSRSAEMMNGFISVNQQLLTHPFNPFSNTLLGKSINAALDSAYHHTKVYDKQPFDIKTTIIDGETVNIDEQVILAKPFCNLIHFKQDTKVQQPKLFLVAPLSGHHATLLKATIERLILDHDVYITDWLDAKNVPLSEGNFDFDDYVTYLIEFMKEIGEDTHVLAVCQPAVQALIATAVLAKDKDAATPKSLTIIAGPIDTSINPNELNKYASSKDLSWFENNVIMTVPERFPGAGRKVYPGFIQLTSFMAMNIENHVKKHTDYFGHVFHGKEDKQESHRDFYDEYLAVLDLNSEFYLETLDRVFINQDLANGKMTYHGELVDLSAITDTALHTIEGKNDDICSLGQTQAAQALCSGIPEQNKLDQVFDGVGHFGTFSGSAFRERIAPSIAEFIQKHK
MATGNRNPENFTSLSPIVKAPITDTLSVPLSQQGRICGFFESQFYRCMEAYGAKMGRKYCDLEHRDFQECVTGDKQKKRADAIREQRCKLFLDGKIAKPYVDNHPEPGQFKTDHFQWNRIN
MGSDKIHHHHHHMKCSLGLEKCPDDTLRCFPKIEQPFGIVIFGASGDLTKRKLIPALNRLFEAGILPERFFVLGAARTKMDDKKFRSRFDANPDFLEHCSYISVDYQDPESFKQLKNTIETLIKRIDSSNLVFYLAVPPDLYIPILENLSKTGLNEKPARVVIEKPFGKDLESARRLEDTLQKYFQEDQIFRIDHYLGKETVQNILVFRFANFIFEEIWNNKFVDHVQITMAEDIGVEHRAGYFENVGLLRDIFQNHMLQILALIAMEPPSSFNGENFRNERVKLLRSIRPFPVEELESWIVRGQYGRGVVNGKEVPAYREEPGVAKDSNVETFVAMKLFIDNWRWSGVPFYLRSGKRLPKKITEVAVVFKKIPHSIFAGVPSDELEPNTIVFTLQPNEGISLEFQVKRPCPGMFPQLLSMDFRYEDYFGVKLPDAYERLLLDVILGDPTLFMRRDDLEVSWELLDPVLKAWENDPVRFSPYVYPAGTWGPREADLLIERDGRKWRKL
